{
  "source": "patent US20240026407A1",
  "about": "“MODIFICATION OF SAPONINS” (GLAXOSMITHKLINE BIOLOGICALS SA, priority 2020, published 2024)",
  "molecules": {"B1": {"name": "Variant R3: engineered rhamnosidase polypeptide, variant of Kribbella flavida rhamnosidase SEQ ID No. 1017 (protein)", "chain": "MSFPAAPARLRFEHRTDPGPVLGIGTATPRLSWQVPTAPDDYRQAGYEVEIARGDAAPEQYTVDSADQVLVPWPGTPLAARESATVRVRVRGDGDWSQWSDPATVEAGLLSADDWTARFVSPRENAGHEAPAPLIGGVIDLPPDIAQARLYATAHGIYEPTLNGTRVGDEQLAPGWTAYEQRLRYQTYDVTDLVAPGENRLELLVGNGWYRGRMGFHGGHSLYGDRLAVLAQLEVTTATGEVKVLASDGTWTTRETNVLADDLYDGQHVDLRRTLGEPGPVDVLDADLSLLVAPDGPPVRVTDVLPAKAVTTSPAGKTLVDFGQNVVGRLRLRVRGGAAGDEIVLRHAEVLEDGELCVRPLRTAKATDSFVLAGPDEVTLEPTLTFHGFRYAEITGVPDLRAEDVEAVVVGSDLRRTGWFESSHPLLDRFHENVVWGMRGNFLDVPTDCPQRDERLGWTGDIQVFSPTASFLFDTAGFLTNWLADLIAEQHKDGSVPFVVPDVLRQPGPATAAWGDAATIVPWVLYERTGDAGLLARQLPSMRAWVDRMAGLAGDDLLWVGGFQFGDWLDPTAPPDDPFRAKADPDVLATAHLARSAEVVALAAEVVGAGELAREYAELAARVRQAFAAEYTTGSGRVLSDAATNYALALQWALLPTEAQRKRAGERLADLVRTAGFRISTGFVGTPLMADALADSGHPDLAYRLLLETGCPSWLYAVTMDATTVWERWDSMLPDGSINPGQMTSFNHYALGAVADWMHRRVAGLAPGDPGYRRIVVDPLFTAHLTKASARHLTPYGEAAVAWSRSGGRVRLEVTVPVGARARVAVPGESAPVEVGHGTHEWTADDVYGETPPLPADATIRQLIDHEPSWTTLAAAATRTGIVADDAELAGRLERYLDHPATELVDAVSPRGFSPSAEALHAELDSVLGR", "modifications": "Seq ID No. 1017 with mutations A143P, L214M, K219G, Q921H, G357C"}},
  "key": {"[1]": {"assay": "Example 9: screening of rhamnosidase variants for derhamnosylation of saponins in crude bark extract", "type": "biochemical, Quillaja saponaria", "settings": "18 h, CBE 75% v/v, 100 mM Sodium acetate pH 5.8", "description": "Libraries of genetic variants encoding mutations in the wild type Kribbella flavida rhamnosidase (SEQ ID No. 1017) were prepared using molecular biology techniques, enzymes were prepared linked to a C-terminally located His-tag. Single monoclonal colonies were grown in 400 ul of expression medium and protein expressed. Cell pellets were lysed in 200 ul of the relevant buffer (Table 17).\nLysate was diluted appropriately in the relevant buffer to allow a lysate loading of the indicated % loading (1% loading corresponds to use of 2 ul original lysate in a 200 ul reaction).\nCrude bark extract (CBE) obtained by aqueous extraction of Quillaja saponaria and containing at least 2.80 mg/ml QS-21 (by HPLC-UV) was adjusted to pH 6 by dropwise addition of 2M NaOH with stirring. The relevant concentration of the relevant glucosidase was added. The appropriate relative volume of pH 6 CBE (160 ul (for 80%) or 150 ul (for 75%)) was added to each well of the reaction plate. The reaction plate was sealed and incubated at the relevant temperature and time.\nThe reaction plate was quenched by adding 200 uL of MeCN (2% AcOH, 1 mg/mL hexanophenone) to each well of the plates. The quenched reaction plate was re-sealed and incubated at 20 deg C. with shaking for 10 min. The reaction plate was then centrifuged (10 min, 4 degC).\n200 uL was transferred from each well of the quenched plate to the corresponding wells of a fresh 96 well plate and sealed. The plate was analysed by UV HPLC with the method described in Example 4.\nThree key peaks of interest are apparent using this chromatography: Left Peak (retention time approximately 2.30-2.35 min) comprising mainly QS-17 family components; Middle Peak (retention time approximately 2.37-2.42 min) comprising mainly QS-18 family components and desglucosyl-QS-17 family components; and Right Peak (retention time approximately 2.44-2.50 min) comprising mainly QS-21 family components. Peak identity was supported by MS/MS.\nEnzyme activity is calculated as the % conversion of the Left Peak present in the crude bark extract: […]"}, "[2]": {"assay": "Example 10: derhamnosylation of saponins in crude bark extract (50%) using WT and engineered rhamnosidases R1 to R5", "type": "biochemical, Quillaja saponaria", "settings": "7 h, 50% CBE, 35 degC; for % Right Peak: starting CBE 26; for % Left Peak: starting CBE 30; for % Middle Peak: starting CBE 44", "description": "Lyophilised powders from clarified cell lysate expressing glucosidases (from Example 8 WT glucosidase and engineered glucosidase polypeptides G1 to G5) and rhamnosidases (from Example 9 WT rhamnosidase and engineered rhamnosidase polypeptides R1 to R5) were dissolved in 200 mM sodium acetate aqueous solution at pH 5.8 to prepare the enzyme solutions at 4 fold the final reaction concentration as shown in Tables 19 and 20.\nEach rhamnosidase solution was combined with an equal volume of 200 mM sodium acetate aqueous solution at pH 5.8 and separately with an equal volume of 200 mM sodium acetate aqueous solution at pH 5.8 containing 2 mg/ml glucosidase G5. This is a sufficient loading of glucosidase to effect complete hydrolysis of the relevant glucose moiety within 4 hours.\nCBE was adjusted to pH of 6.0 to 6.2 with 2M sodium hydroxide and an equal volume added to the enzyme solution to prepare the reaction mix (i.e. 50% CBE concentration in reaction mix) and the concentration of glucosidase and/or rhamnosidase is shown in Tables 19 and 20. The reaction mix was heated to 35 degC for the time indicated in Tables 19 and 20, after which the reaction was quenched by addition of an equal volume of MeCN containing 2% acetic acid and shaken at room temperature for 10 mins prior to centrifugation (10 min, 4 degC) to remove particulates. Samples were analysed by UV HPLC using method of Experiment 4-4.\nThe change in composition of the Left, Middle and Right peaks is shown in Tables 19 and 20. The composition changes by the action of the enzymes depending on the presence or absence of the partner enzyme. The extent of reaction is proportional to the enzyme concentration and the reaction time under these conditions. The tables show data for enzyme concentrations and the reaction times providing for equivalent extents of reaction. The improvement resulting from the mutations introduced for each variant is equal to the fold change in enzyme concentration×time (i.e. fold improvement=(enzyme concentration×time) for preceding variant÷(enzyme concentration×time) for later variant). A cumulative fold improvement over the original enzyme variant is calculated by the product of the individual fold improvements."}, "[3]": {"settings": "rhamnosidase 0.63 mg/ml + glucosidase G5 0.5 mg/ml"}, "[4]": {"settings": "rhamnosidase 0.63 mg/ml, no glucosidase"}},
  "data": [
    {"molecule": "B1", "values": [
      {"measurement": "% conversion (Right peak/Left Peak) (−neg control)", "setting": "[1]; R3 round: 35 deg C, lysate 0.4% v/v", "value": 13.06, "unit": "%"},
      {"measurement": "Cumulative FIOP from WT", "setting": "[1]; R3 round: 35 deg C, lysate 0.4% v/v, estimate", "value": 9.4},
      {"measurement": "Right Peak %", "setting": "[1]; R3 round: 35 deg C, lysate 0.4% v/v, negative control 26.60", "value": 29.45, "unit": "%"},
      {"measurement": "Left Peak %", "setting": "[1]; R3 round: 35 deg C, lysate 0.4% v/v, negative control 28.91", "value": 18.85, "unit": "%"},
      {"measurement": "Middle Peak %", "setting": "[1]; R3 round: 35 deg C, lysate 0.4% v/v, negative control 44.49", "value": 51.70, "unit": "%"},
      {"measurement": "% conversion (Right peak/Left Peak)", "setting": "[1]; R3 round: 35 deg C, lysate 0.4% v/v, negative control 47.91", "value": 60.97, "unit": "%"},
      {"measurement": "FIOP (% area increase variant/pos control)", "setting": "[1]; R3 round: 35 deg C, lysate 0.4% v/v, positive control R2", "value": 3.3},
      {"measurement": "% conversion (Right peak/Left Peak) (−neg control)", "setting": "[1]; R4 round: 35 deg C, lysate 0.125% v/v", "value": 2.16, "unit": "%"},
      {"measurement": "Right Peak %", "setting": "[1]; R4 round: 35 deg C, lysate 0.125% v/v, negative control 26.09", "value": 26.56, "unit": "%"},
      {"measurement": "Left Peak %", "setting": "[1]; R4 round: 35 deg C, lysate 0.125% v/v, negative control 29.62", "value": 27.65, "unit": "%"},
      {"measurement": "Middle Peak %", "setting": "[1]; R4 round: 35 deg C, lysate 0.125% v/v, negative control 44.29", "value": 45.79, "unit": "%"},
      {"measurement": "% conversion (Right peak/Left Peak)", "setting": "[1]; R4 round: 35 deg C, lysate 0.125% v/v, negative control 46.84", "value": 49.00, "unit": "%"},
      {"measurement": "% change in Left Peak", "setting": "[2]; [3]", "value": "−38", "unit": "%"},
      {"measurement": "% change in Middle Peak", "setting": "[2]; [3]", "value": "−99", "unit": "%"},
      {"measurement": "% change in Right Peak", "setting": "[2]; [3]", "value": 311, "unit": "%"},
      {"measurement": "Cumulative Fold improvement in primary enzyme loading × time", "setting": "[2]; [3]", "value": 8},
      {"measurement": "Fold improvement in primary enzyme loading × time", "setting": "[2]; [3]", "value": 2.0},
      {"measurement": "% Right Peak", "setting": "[2]; [3]", "value": 81, "unit": "%"},
      {"measurement": "% Left Peak", "setting": "[2]; [3]", "value": 19, "unit": "%"},
      {"measurement": "% Middle Peak", "setting": "[2]; [3]", "value": 0, "unit": "%"},
      {"measurement": "% change in Left Peak", "setting": "[2]; [4]", "value": "−45", "unit": "%"},
      {"measurement": "% change in Middle Peak", "setting": "[2]; [4]", "value": 21, "unit": "%"},
      {"measurement": "% change in Right Peak", "setting": "[2]; [4]", "value": 116, "unit": "%"},
      {"measurement": "Cumulative Fold improvement in primary enzyme loading × time", "setting": "[2]; [4]", "value": 8},
      {"measurement": "Fold improvement in primary enzyme loading × time", "setting": "[2]; [4]", "value": 2.0},
      {"measurement": "% Right Peak", "setting": "[2]; [4]", "value": 30, "unit": "%"},
      {"measurement": "% Left Peak", "setting": "[2]; [4]", "value": 16, "unit": "%"},
      {"measurement": "% Middle Peak", "setting": "[2]; [4]", "value": 53, "unit": "%"}
    ]}
  ]
}
